Measurements reported in patent publication CN115746133A (BOAOXIN BIOTECHNOLOGY NANJING CO LTD, dated 2023).

Experiments:
[1] = molecular target: T1, 人CD47 (表面过表达人CD47的293F细胞) (human, UniProt Q08722 19-323); assay: flow cytometry on 293F cells overexpressing human CD47
T1 construct: whole, on cells; also called 表面过表达人CD47的稳定细胞系293F

[2] = molecular target: T2, 重组人CD47-his蛋白 (ACRO biosystems, cat#CD7-H5227) (human, UniProt Q08722 19-139, biotin-labelled in the ELISA assays (site not stated)); assay: SPR (Biacore T200), antibody captured by goat anti-mouse IgG on a CM5 chip, CD47-his as analyte
T2 construct: Bought protein; also called 人CD47蛋白; 人CD47-生物素; not shown: his tag
T2 sequence (Q08722 19-139 limits assumed): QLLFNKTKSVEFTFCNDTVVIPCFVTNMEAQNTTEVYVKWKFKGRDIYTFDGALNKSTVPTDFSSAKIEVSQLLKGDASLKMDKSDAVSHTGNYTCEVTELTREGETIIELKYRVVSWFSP

T1 sequence (Q08722 19-323): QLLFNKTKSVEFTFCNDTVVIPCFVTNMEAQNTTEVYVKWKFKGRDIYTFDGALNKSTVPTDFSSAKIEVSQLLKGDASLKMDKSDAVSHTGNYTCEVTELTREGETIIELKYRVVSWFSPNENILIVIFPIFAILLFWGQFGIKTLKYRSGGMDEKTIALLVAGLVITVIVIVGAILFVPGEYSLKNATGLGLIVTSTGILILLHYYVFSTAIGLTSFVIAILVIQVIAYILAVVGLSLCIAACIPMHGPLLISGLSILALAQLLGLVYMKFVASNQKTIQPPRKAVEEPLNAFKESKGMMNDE

binding result [1]: binds | binding result [2]: binds
B1: 小鼠抗人CD47单克隆抗体1H10 (antibody, V domains shown)
VH: EVQLQQSGAELVRSGASVTLSCTASGFKIKDYYMNWVKQRPEQGLEWIGWIGPENGDTENGPKFQDKATMTANTSSNTAFLQLSSLTPEDTAFYYCNAGGRGGFPYWGQGTQVTVST
VL: DILLTQTPLSLPVSLGDQASFSCRSSQDIVHINGKTYLEWYLQKPGQSPKLLIYRVSNRFSGVPDRFSGSGSGTDFTLKISRVEAEDLGVYYCFQGSHVPRTFGGGTKLEIK
notes: also called 本发明的抗体1H10; 本发明的单克隆抗体1H10
